± gives the standard deviation of the averaged measurements.
The sequences below were run on ATP (assay: switch fluorescence ratio, 500 uM ATP over buffer (Cy3 cluster intensity, sum of 5 cycles each) (fold (ratio)); higher = stronger signal-on switching upon ATP binding; sequences stand for … in TCGTCGGCAGCGTCAGATGTGTATAAGAGACAGTTTTTTTTTTTTTTTTTTTTTTTTT…TC). Details: aptamer strand: ATP DNA aptamer (quencher-CACCTGGGGGAGTATTGCGGAGGAAGG + anchor), 100 nM annealed; ATP concentration: 500 uM.
Method in brief: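 Switching-strand clusters labelled with Cy3 on a modified Illumina MiSeq flow-cell were annealed to 100 nM quencher-labelled ATP aptamer, imaged in selection buffer, and re-imaged after 15 min with 500 uM ATP at 22 °C. This was done over five cycles with NaOH stripping and re-annealing in between. The fluorescence ratio is summed target-cycle over summed buffer-cycle Cy3 intensity per cluster, averaged per switch-domain sequence, excluding clusters outside 100-1000 RFU.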
For TCGGCGAAAA, the switch fluorescence ratio was 1.84 ± 1.1. In the case of TCGGCGGCGG, the switch fluorescence ratio is reported as 0.974 ± 0.027. With TCGGCGGGCG the switch fluorescence ratio was 0.986 ± 0.043. TCGGCGTAAG gave a switch fluorescence ratio of 0.998 ± 0.03. Sequence TCGGCGTTGG has a switch fluorescence ratio of 1.03 ± 0.026. Sequence TCGGCTGTAT has a switch fluorescence ratio of 1.69 ± 0.94. Work on TCGGCTTAGC yielded a switch fluorescence ratio of 0.981 ± 0.012. In the case of TCGGCTTCCT, the switch fluorescence ratio is reported as 1.27 ± 0.031. Sequence TCGGGAAGGG has a switch fluorescence ratio of 0.991 ± 0.014. TCGGGAATTT showed a switch fluorescence ratio of 1.067 ± 0.0091. TCGGGACATA was tested, and the switch fluorescence ratio was 1.02 ± 0.041. In the case of TCGGGACGTT, the switch fluorescence ratio is reported as 1.02 ± 0.044. Work on TCGGGAGAAG yielded a switch fluorescence ratio of 1.01 ± 0.013. In the case of TCGGGAGCGT, the switch fluorescence ratio is reported as 1.01 ± 0.033. Sequence TCGGGAGTTG has a switch fluorescence ratio of 0.952 ± 0.024. With TCGGGATTGA the switch fluorescence ratio was 0.98 ± 0.013. For TCGGGATTTT, the switch fluorescence ratio was 0.997 ± 0.041. With TCGGGCAGTG the switch fluorescence ratio was 0.99 ± 0.03. TCGGGCGCAT was tested, and the switch fluorescence ratio was 1.27 ± 0.026. TCGGGCGG showed a switch fluorescence ratio of 1.03 ± 0.014. TCGGGCTTTT was tested, and the switch fluorescence ratio was 0.969 ± 0.026. With TCGGGGAAAT the switch fluorescence ratio was 1.01 ± 0.023. With TCGGGGAATT the switch fluorescence ratio was 0.989 ± 0.032. Work on TCGGGGCCGC yielded a switch fluorescence ratio of 0.981 ± 0.11. TCGGGGCCTT was tested, and the switch fluorescence ratio was 0.998 ± 0.033. TCGGGGCTGG was tested, and the switch fluorescence ratio was 1.02 ± 0.029. Work on TCGGGGGCCT yielded a switch fluorescence ratio of 0.959 ± 0.022. TCGGGGGGAC showed a switch fluorescence ratio of 1.03 ± 0.036. With TCGGGGGGCG the switch fluorescence ratio was 0.977 ± 0.034. For TCGGGGGGCT, the switch fluorescence ratio was 1.06 ± 0.048. TCGGGGGGGT gave a switch fluorescence ratio of 1.06 ± 0.19. Work on TCGGGGGGTG yielded a switch fluorescence ratio of 1.01 ± 0.041. TCGGGGTATC was tested, and the switch fluorescence ratio was 1.03 ± 0.0046. In the case of TCGGGGTATG, the switch fluorescence ratio is reported as 0.982 ± 0.014. In the case of TCGGGGTGTT, the switch fluorescence ratio is reported as 1.001 ± 0.0096. TCGGGTAAAG showed a switch fluorescence ratio of 0.9947 ± 0.0053. In the case of TCGGGTATGT, the switch fluorescence ratio is reported as 0.977 ± 0.029. TCGGGTCTAC showed a switch fluorescence ratio of 1.01 ± 0.018. TCGGGTGGTT gave a switch fluorescence ratio of 1 ± 0.016. TCGGTAATAT showed a switch fluorescence ratio of 1.08 ± 0.16. TCGGTAGGTG gave a switch fluorescence ratio of 1.028 ± 0.0052. With TCGGTCAGTT the switch fluorescence ratio was 0.971 ± 0.012. In the case of TCGGTCCCAG, the switch fluorescence ratio is reported as 1.03 ± 0.014. TCGGTGGCGT was tested, and the switch fluorescence ratio was 1.02 ± 0.048. TCGGTGGGGA gave a switch fluorescence ratio of 0.992 ± 0.087. TCGGTGGGGG showed a switch fluorescence ratio of 1.01 ± 0.051. TCGGTGGGTA was tested, and the switch fluorescence ratio was 0.983 ± 0.013. In the case of TCGGTGTTTC, the switch fluorescence ratio is reported as 0.962 ± 0.017. In the case of TCGGTTAAGT, the switch fluorescence ratio is reported as 1.02 ± 0.031. TCGGTTGAAC showed a switch fluorescence ratio of 1.01 ± 0.031. Sequence TCGGTTGAGG has a switch fluorescence ratio of 0.983 ± 0.025. TCGGTTGCTA was tested, and the switch fluorescence ratio was 1.05 ± 0.023. TCGGTTGTG gave a switch fluorescence ratio of 0.9644 ± 0.0092. In the case of TCGGTTTAGC, the switch fluorescence ratio is reported as 1.02 ± 0.035. Sequence TCGGTTTTAC has a switch fluorescence ratio of 1.033 ± 0.0061. Sequence TCGTAAATTT has a switch fluorescence ratio of 0.973 ± 0.055. In the case of TCGTACTGTG, the switch fluorescence ratio is reported as 1.02 ± 0.1. For TCGTAGAGGA, the switch fluorescence ratio was 0.995 ± 0.032. TCGTAGAGGG gave a switch fluorescence ratio of 1.008 ± 0.0013. For TCGTAGCAGG, the switch fluorescence ratio was 1.12 ± 0.14. TCGTATGGGT gave a switch fluorescence ratio of 1 ± 0.045. In the case of TCGTCGCAGG, the switch fluorescence ratio is reported as 1.1 ± 0.058. TCGTCGTGTG showed a switch fluorescence ratio of 1 ± 0.028. For TCGTCGTTTG, the switch fluorescence ratio was 0.991 ± 0.01. Sequence TCGTCTTTTG has a switch fluorescence ratio of 0.997 ± 0.015. Work on TCGTGAGCGG yielded a switch fluorescence ratio of 0.996 ± 0.034. With TCGTGATTTT the switch fluorescence ratio was 1 ± 0.035. For TCGTGCACGA, the switch fluorescence ratio was 1.018 ± 0.0062. TCGTGCTTTG showed a switch fluorescence ratio of 1.0145 ± 0.00045. TCGTGGGGAG showed a switch fluorescence ratio of 0.982 ± 0.015. With TCGTGGGGTA the switch fluorescence ratio was 0.9761 ± 0.007. Sequence TCGTGGTGGG has a switch fluorescence ratio of 0.994 ± 0.012. TCGTGTCGG gave a switch fluorescence ratio of 0.98 ± 0.021. TCGTGTGGGT gave a switch fluorescence ratio of 1.01 ± 0.023. In the case of TCGTGTGGTT, the switch fluorescence ratio is reported as 0.978 ± 0.035. TCGTGTTTGT showed a switch fluorescence ratio of 1.02 ± 0.011. TCGTTAATGA was tested, and the switch fluorescence ratio was 1.02 ± 0.02. TCGTTATTCG gave a switch fluorescence ratio of 0.979 ± 0.021. With TCGTTATTGG the switch fluorescence ratio was 0.9844 ± 0.0023. TCGTTCATGG was tested, and the switch fluorescence ratio was 0.979 ± 0.039. TCGTTCGGCT was tested, and the switch fluorescence ratio was 1.01 ± 0.044. TCGTTCGGGG gave a switch fluorescence ratio of 1.041 ± 0.0049. Work on TCGTTCGTCG yielded a switch fluorescence ratio of 1.04 ± 0.06. For TCGTTCTGGG, the switch fluorescence ratio was 0.996 ± 0.023. TCGTTGAGCA gave a switch fluorescence ratio of 0.994 ± 0.018. With TCGTTGCAGG the switch fluorescence ratio was 1.05 ± 0.092. Sequence TCGTTGCTAG has a switch fluorescence ratio of 0.982 ± 0.059. TCGTTGGCTT was tested, and the switch fluorescence ratio was 1 ± 0.011. Work on TCGTTTATCA yielded a switch fluorescence ratio of 0.9771 ± 0.0073. TCGTTTCGGG showed a switch fluorescence ratio of 0.985 ± 0.017. For TCGTTTGTAT, the switch fluorescence ratio was 0.972 ± 0.005. TCGTTTTATT gave a switch fluorescence ratio of 0.9925 ± 0.0076. TCGTTTTCCC showed a switch fluorescence ratio of 1.08 ± 0.14. TCGTTTTGAC showed a switch fluorescence ratio of 1.02 ± 0.023. Sequence TCGTTTTGAG has a switch fluorescence ratio of 0.971 ± 0.039. Work on TCGTTTTGCA yielded a switch fluorescence ratio of 0.991 ± 0.013. TCGTTTTGGG showed a switch fluorescence ratio of 0.9988 ± 0.0056. For TCTAAAGATT, the switch fluorescence ratio was 1.011 ± 0.0027. Work on TCTAACATGC yielded a switch fluorescence ratio of 1.15 ± 0.12. TCTAACTTAG gave a switch fluorescence ratio of 1.043 ± 0.0025. Sequence TCTAAGACGT has a switch fluorescence ratio of 0.957 ± 0.018. TCTAAGAGTC was tested, and the switch fluorescence ratio was 0.975 ± 0.039. Sequence TCTAAGCTGG has a switch fluorescence ratio of 0.988 ± 0.014. For TCTAAGGCCC, the switch fluorescence ratio was 0.986 ± 0.011. Sequence TCTAATTAGT has a switch fluorescence ratio of 0.993 ± 0.013. In the case of TCTAATTGTT, the switch fluorescence ratio is reported as 0.9991 ± 0.0053. In the case of TCTACAGTCG, the switch fluorescence ratio is reported as 1.02 ± 0.023. In the case of TCTACGGCGT, the switch fluorescence ratio is reported as 0.9991 ± 0.0059. TCTACGGTGC showed a switch fluorescence ratio of 1.5 ± 0.24. Sequence TCTACTGGGT has a switch fluorescence ratio of 0.993 ± 0.033. With TCTAGAAGCG the switch fluorescence ratio was 1.0039 ± 0.00082. In the case of TCTAGCACGG, the switch fluorescence ratio is reported as 1.06 ± 0.023. With TCTAGGAGGG the switch fluorescence ratio was 0.998 ± 0.016. TCTAGGCCTC showed a switch fluorescence ratio of 1.019 ± 0.0038. TCTAGGTAGA was tested, and the switch fluorescence ratio was 0.993 ± 0.026. TCTAGTAAAT was tested, and the switch fluorescence ratio was 1.01 ± 0.015. TCTATCAGTG was tested, and the switch fluorescence ratio was 1.02 ± 0.018. With TCTATCTTTA the switch fluorescence ratio was 0.996 ± 0.019. For TCTATGACAA, the switch fluorescence ratio was 1.01 ± 0.039. TCTATGAGGC was tested, and the switch fluorescence ratio was 0.988 ± 0.024. Sequence TCTATGGGGT has a switch fluorescence ratio of 1 ± 0.019. For TCTATTAAGG, the switch fluorescence ratio was 1 ± 0.013. TCTATTACGC showed a switch fluorescence ratio of 1 ± 0.047. TCTATTCCCT gave a switch fluorescence ratio of 1.02 ± 0.027. TCTCACTGCC was tested, and the switch fluorescence ratio was 1.08 ± 0.028. In the case of TCTCAGAGTA, the switch fluorescence ratio is reported as 1 ± 0.012. With TCTCAGGGGT the switch fluorescence ratio was 1.07 ± 0.094. TCTCATAGGT was tested, and the switch fluorescence ratio was 1.04 ± 0.038. With TCTCATTCAG the switch fluorescence ratio was 1.06 ± 0.14. In the case of TCTCGGAAAA, the switch fluorescence ratio is reported as 0.996 ± 0.021. TCTCGTCAGC was tested, and the switch fluorescence ratio was 1.087 ± 0.0041. In the case of TCTCGTGGGA, the switch fluorescence ratio is reported as 1.01 ± 0.03. In the case of TCTCGTTTT, the switch fluorescence ratio is reported as 0.979 ± 0.025. With TCTCTGTCGA the switch fluorescence ratio was 1.4 ± 0.11. Work on TCTCTTAAGT yielded a switch fluorescence ratio of 0.989 ± 0.012. TCTCTTTTTA gave a switch fluorescence ratio of 1.02 ± 0.023. With TCTGAAGATT the switch fluorescence ratio was 0.999 ± 0.016. For TCTGAAGGTG, the switch fluorescence ratio was 1.28 ± 0.22. With TCTGATTTGT the switch fluorescence ratio was 1.01 ± 0.013. In the case of TCTGCCATTT, the switch fluorescence ratio is reported as 1.44 ± 0.63. In the case of TCTGCCTTTT, the switch fluorescence ratio is reported as 1.05 ± 0.074. TCTGGAGCCG showed a switch fluorescence ratio of 1.04 ± 0.022. TCTGGAGGGG showed a switch fluorescence ratio of 1.022 ± 0.0073. With TCTGGCGCCG the switch fluorescence ratio was 1.03 ± 0.017. TCTGGGAGAA showed a switch fluorescence ratio of 0.992 ± 0.042. Sequence TCTGGGGAAT has a switch fluorescence ratio of 1 ± 0.035. Sequence TCTGGGGGAG has a switch fluorescence ratio of 0.977 ± 0.029. TCTGGGGTTA gave a switch fluorescence ratio of 1 ± 0.018. Work on TCTGGGTGCC yielded a switch fluorescence ratio of 1.02 ± 0.055. In the case of TCTGGTACAG, the switch fluorescence ratio is reported as 0.969 ± 0.02. Sequence TCTGGTCCGG has a switch fluorescence ratio of 0.997 ± 0.015. TCTGGTGTGG showed a switch fluorescence ratio of 0.994 ± 0.053. TCTGGTTGAG was tested, and the switch fluorescence ratio was 1.02 ± 0.019.

From the supplement of paper PMC10126150
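Note: ATP exposure 15 min at 22 °C before imaging.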
